Experimental data taken from US20160245821A1.

Legend:
[1] = biological target: WD Repeat Containing Protein 5 (WDR5) (UniProt P61964); assay: ITC
[2] = biological target: WD Repeat Containing Protein 5 (WDR5) (UniProt P61964); assay: thermal shift
[3] = biological target: WD Repeat Containing Protein 5 (WDR5) (UniProt P61964); assay: fluorescent polarization (FP) assay

Kd [1]: 1300 nM
ΔTm*(Thermal shift) [2]: 2 ° C.
Kd [3]: 1300 nM
Substance: Peptide Substrate (WIN peptide, pentapeptide fragment of the WDR5 binding partner MLL1 protein)
